Experimental data published in IntAct's records for PubMed 17540176.

B1: Serine/threonine-protein phosphatase 2A 65 kDa regulatory subunit A beta isoform (Homo sapiens), P30154 (parent)
chain: MAGASELGTGPGAAGGDGDDSLYPIAVLIDELRNEDVQLRLNSIKKLSTIALALGVERTRSELLPFLTDTIYDEDEVLLALAEQLGNFTGLVGGPDFAHCLLPPLENLATVEETVVRDKAVESLRQISQEHTPVALEAYFVPLVKRLASGDWFTSRTSACGLFSVCYPRASNAVKAEIRQQFRSLCSDDTPMVRRAAASKLGEFAKVLELDSVKSEIVPLFTSLASDEQDSVRLLAVEACVSIAQLLSQDDLETLVMPTLRQAAEDKSWRVRYMVADRFSELQKAMGPKITLNDLIPAFQNLLKDCEAEVRAAAAHKVKELGENLPIEDRETIIMNQILPYIKELVSDTNQHVKSALASVIMGLSTILGKENTIEHLLPLFLAQLKDECPDVRLNIISNLDCVNEVIGIRQLSQSLLPAIVELAEDAKWRVRLAIIEYMPLLAGQLGVEFFDEKLNSLCMAWLVDHVYAIREAATNNLMKLVQKFGTEWAQNTIVPKVLVMANDPNYLHRMTTLFCINALSEACGQEITTKQMLPIVLKMAGDQVANVRFNVAKSLQKIGPILDTNALQGEVKPVLQKLGQDEDMDVKYFAQEAISVLALA
partner: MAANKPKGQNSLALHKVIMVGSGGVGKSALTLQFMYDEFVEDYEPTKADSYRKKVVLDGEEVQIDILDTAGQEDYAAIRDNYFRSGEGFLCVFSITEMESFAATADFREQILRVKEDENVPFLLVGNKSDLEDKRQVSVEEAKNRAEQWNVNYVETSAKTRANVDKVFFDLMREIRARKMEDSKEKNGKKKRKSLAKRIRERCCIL
B2: Serine/threonine-protein phosphatase 2A 65 kDa regulatory subunit A beta isoform (Homo sapiens), P30154 (parent)
chain: B1 chain
partner: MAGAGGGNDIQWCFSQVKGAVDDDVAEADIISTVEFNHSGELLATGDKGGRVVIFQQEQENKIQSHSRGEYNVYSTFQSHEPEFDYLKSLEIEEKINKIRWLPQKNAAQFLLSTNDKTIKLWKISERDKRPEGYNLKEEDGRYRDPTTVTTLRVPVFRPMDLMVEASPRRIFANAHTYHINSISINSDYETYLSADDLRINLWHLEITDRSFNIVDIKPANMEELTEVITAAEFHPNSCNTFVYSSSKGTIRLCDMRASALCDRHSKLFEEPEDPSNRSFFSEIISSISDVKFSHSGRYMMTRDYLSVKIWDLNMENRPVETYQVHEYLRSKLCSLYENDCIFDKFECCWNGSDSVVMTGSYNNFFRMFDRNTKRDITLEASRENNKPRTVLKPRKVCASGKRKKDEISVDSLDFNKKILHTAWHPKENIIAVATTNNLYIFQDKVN
B3: Ras-related protein Ral-A (Homo sapiens), P11233 (parent)
chain: B1 partner
B4: Serine/threonine-protein phosphatase 2A 65 kDa regulatory subunit A beta isoform (Homo sapiens), P30154 (parent)
chain: B1 chain

Variants of: B1
Conditions: with rala_human RALA

Row | Variant | effect of a mutation on the interaction
1 | V448A | decreasing interaction
2 | V545A | decreasing interaction
3 | G8R | decreasing interaction

Variants of: B2
Conditions: with 2aba_human PPP2R2A

Row | Variant | effect of a mutation on the interaction
4 | L101P;V448A | decreasing interaction

Variants of: B3
Conditions: with 2aab_human PPP2R1B

Row | Variant | effect of a mutation on the interaction
5 | MAANKPKGQNSLALHKVIMVGSGGVGKSALTLQFMYDEFVEDYEPTKADSYRKKVVLDGEEVQIDILDTAGQEDYAAIRDNYFRSGEGFLCVFSITEMESFAATADFREQILRVKEDENVPFLLVGNKSDLEDKRQVSVEEAKNRAEQWNVNYVETSAKTRANVDKVFFDLMREIRARKMEDAKEKNGKKKRKSLAKRIRERCCIL [S183A] | decreasing interaction
6 | MAANKPKGQNSLALHKVIMVGSGGVGKSALTLQFMYDEFVEDYEPTKADSYRKKVVLDGEEVQIDILDTAGQEDYAAIRDNYFRSGEGFLCVFSITEMESFAATADFREQILRVKEDENVPFLLVGNKSDLEDKRQVSVEEAKNRAEQWNVNYVETSAKTRANVDKVFFDLMREIRARKMEDSKEKNGKKKRKALAKRIRERCCIL [S194A] | decreasing interaction

Variants of: B4
Conditions: with 2a5g_human PPP2R5C

Row | Variant | effect of a mutation on the interaction
7 | K343E | decreasing interaction
8 | L101P;V448A | decreasing interaction
9 | D504G | decreasing interaction
10 | V448A | decreasing interaction
11 | V545A | decreasing interaction
12 | L101P | decreasing interaction

Variants of: B4
Conditions: with pp2aa_human PPP2CA

Row | Variant | effect of a mutation on the interaction
13 | L101P;V448A | decreasing interaction
14 | V448A | decreasing interaction
15 | L101P | decreasing interaction

Variants of: B4
Conditions: with 2a5a_human PPP2R5A

Row | Variant | effect of a mutation on the interaction
16 | L101P;V448A | decreasing interaction
17 | V448A | decreasing interaction
18 | L101P | decreasing interaction

Variants of: B4
Conditions: with 2a5d_human PPP2R5D

Row | Variant | effect of a mutation on the interaction
19 | L101P;V448A | decreasing interaction
20 | V448A | decreasing interaction
21 | V545A | decreasing interaction
22 | L101P | decreasing interaction
